From US8440629B2, “Cyclic receptor-associated protein (RAP) peptides” (Raptor Pharmaceuticals Inc., priority 2007, dated 2013)
Where a chain is given by its changes, count along the chain named. In names and notes the source's numbering stands.

B1: RAP d3: third domain of human RAP, amino acids 201-319 of mature RAP, bacterially expressed with hexahistidine and S-peptide tags (SEQ ID NO: 92) (protein, listed as Homo sapiens)
chain: LDRLRRVSHQGYSTEAEFEEPRVIDLWDLEQSANLTDKELEAFREELKHFEAKIEKHNHYQKQLEIAHEKLRHAESVGDGERVSRSREKHALLEGRTKELGYTVKKHLQDLSGRISRAR
modifications: hexahistidine and S-peptide tags
B2: MegaRAP1 d3: d3 of RAP variant selected on LRP2 CR89: S213T, E217K, H249Y, E251K, K256A, K270E (SEQ ID NO: 93) (protein, listed as Homo sapiens)
chain: B1 chain with E51K, K56A, K70D

Columns and labels:
LRP2 CR89 = target: T1, LRP2 CR89 (Homo sapiens, UniProt P98164); assay: Solid phase binding assay
T1 construct: two CR pairs from LRP2 (CR89, CR3435); made in house; host or cells: E. coli BL21(DE3) CodonPlus-RIPL, pET30(+)a
T1 sequence (P98164 1022-1105 limits assumed): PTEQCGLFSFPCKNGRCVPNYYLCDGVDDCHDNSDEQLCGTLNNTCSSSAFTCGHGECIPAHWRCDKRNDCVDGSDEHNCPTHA
Method: (§1) All expression constructs were sequenced to verify insert sequences and the junctions with the expression vector. Each plasmid was then used to transform BL21(DE3) CodonPlus-RIPL™ cells (Stratagene). Expression of the CR proteins was induced in logarithmic growth-phase cells grown in LB supplemented with 34 μg/mL chloramphenicol, 12.5 μg/mL tetracycline and 15 μg/mL kanamycin by addition of 2 mM IPTG, followed by reduction in incubator temperature to 32° C. and incubation for 4 hours with agitation at […]. Cells were pelleted and resuspended, at 3.5% of the initial culture volume in 10 mM Tris-HCl pH 8, 100 mM NaH2PO4, 8M Urea. Resuspended cells were then frozen in liquid nitrogen, rapidly thawed to 37° C. and sonicated for 10 seconds at an amplitude setting of 60 using a Cole-Parmer CP-130 ultrasonic processor connected to a 3 mm probe. This procedure was repeated three times to effect complete lysis of the cells. Lysates were clarified by spinning twice at 10,000×g in a Sorvall RC-5 centrifuge for 20 minutes at 15° C. Ni-NTA columns (Qiagen Superflow™, 1.5 mL packed bed) were used to purify the CR proteins. Briefly, the resin was equilibrated with two column volumes of lysis buffer. The clarified lysate was then supplemented to 20 mM with imidazole and incubated with the equilibrated Ni-NTA resin overnight at 4° C. The flow-through was discarded. Columns were washed once with one column volume of lysis buffer and then three times with one column volume of TBS pH 8 supplemented with 20 mM imidazole. CR-loaded beads were then removed from the column and CR proteins eluted by incubating at room temperature for 30 minutes with one column volume of the same buffer containing 200 mM imidazole. This step was repeated once and the eluates pooled. Eluted CR protein solutions were then supplemented to 2 M urea, 10 mM CaCl2 and 5 mM DTT. Purified, denatured CR protein solutions were transferred to 3,500 MWCO Slide-A-Lyzer™ (Pierce) cassettes and sequentially dialyzed against a 200-fold excess of 50 mM Tris-HCl pH 8.5, 10 mM CaCl2, 1 mM reduced glutathione, 0.5 mM oxidized glutathione at room temperature overnight and then against TBS supplemented with 5 mM CaCl2 at 4° C. overnight. Protein concentrations were determined by Bradford assay and purity confirmed by SDS-PAGE with Coomassie Brilliant Blue staining.
(§2) Purified, refolded CR protein (1 μg) was bound to Nunc Maxisorp™ 96-well plates in TBS pH 8 supplemented with 5 mM CaCl2 (TBSC) overnight at 4° C. Wells were washed with TBSC and then blocked with TBSC containing 2% bovine serum albumin (BSA). RAP ligands were then incubated with the immobilized receptor at a range of concentrations for 2 hours in the above blocking buffer supplemented with 0.05% Tween-20 at room temperature. Control wells contained no added ligand. As an additional control, to determine whether the absence of calcium affected binding, 10 mM EGTA was included in the incubation medium for some samples. Wells were washed with TBSTC and bound ligands detected with polyclonal anti-RAP (BP41/42, 1:1,000, BioMarin). Excess primary antibody was removed and wells washed before incubation with the secondary antibody, HRP-conjugated goat anti rabbit IgG (Bio-Rad). After washing, TMB substrate solutions (Bio-Rad) were added to detect HRP. Color development was stopped with 1N HCl. Absorption at 450 nm was measured with a microplate spectrophotometer (Molecular Devices). Data were plotted and Kd values derived by non-linear regression with the assumption of single-site binding (GraphPad Prism).

LRP1 CR3-5 = target: T2, LRP1 CR3-5 (Homo sapiens, UniProt Q07954); assay: Solid phase binding assay
T2 construct: made in house; host or cells: E. coli BL21(DE3) CodonPlus-RIPL, pET30(+)a
T2 sequence (Q07954 852-973): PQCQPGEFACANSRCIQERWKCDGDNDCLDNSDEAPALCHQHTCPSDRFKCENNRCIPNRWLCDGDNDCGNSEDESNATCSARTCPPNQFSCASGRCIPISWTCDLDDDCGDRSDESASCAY
Method: as §1, §2
From the large number of CR pairs with unique combinations of amino acids at A, C, A′ and C′ within the calcium-binding loop of each CR, CR pairs or triplets were selected to test their binding to RAP d3 (FIG. 2). An additional pair derived from the FDC-8D6 protein was tested, designated 8D6 CR12, having the sequence ([…]) (SEQ ID NO: 91). […]

CR proteins = assay: Solid phase binding assay in presence of 10 mM EGTA; set-up: species or system human
Method: as §2
Next, the binding of RAP d3 and MegaRAP1 d3 proteins to LRP1 CR3-5 and LRP2 CR89 was assessed. […]

Molecule | binding to LRP2 CR89 (in words) (LRP2 CR89; solid-phase assay) | binding at 80 nM (in words) (LRP1 CR3-5; 80 nM ligand, FIG. 7) | effect of 10 mM EGTA on binding to CR proteins (CR proteins) | binding at 80 nM (in words) (LRP2 CR89; 80 nM ligand, FIG. 7) | Kd (LRP2 CR89; solid-phase assay, LRP2 CR89, read-out: apparent dissociation constant (Kd)) [µM] | binding to LRP1 CR3-5 (in words) (LRP1 CR3-5; solid-phase assay)
B1 | no significant affinity | only bound to LRP1 CR3-5 | prevented binding |  |  | 
B2 |  |  | prevented binding | bound only to LRP2 CR89 | 0.038 | no significant affinity
